# Tests used:
# tubulin (microtubules) = assay: optical trap tip-attachment detachment rate
# [1] = biological target: Dynamic microtubules, coverslip-anchored (grown from GMPCPP-stabilized seeds with unpolymerized tubulin) (bovine) (UniProt Q6B856); assay: optical trap force clamp (detachment of kinetochore-decorated beads from microtubule tips); high density of kinetochores on anti-His beads (Dsn1:bead ratio 3,300); coverslip-anchored dynamic microtubules; ~1 pN; 3 nM Dam1c and ATP in the buffer; 0.5 μM active AurB* flowed in
# [2] = biological target: Dynamic microtubules, coverslip-anchored (grown from GMPCPP-stabilized seeds with unpolymerized tubulin) (bovine) (UniProt Q6B856); assay: optical trap force clamp (detachment of kinetochore-decorated beads from microtubule tips); low density of kinetochores on anti-His beads (Dsn1:bead ratio 200); coverslip-anchored dynamic microtubules; 1.5 pN; 3 nM Dam1c and ATP in the buffer; 0.5 μM AurB*-KD flowed in
# [3] = biological target: Dynamic microtubules, coverslip-anchored (grown from GMPCPP-stabilized seeds with unpolymerized tubulin) (bovine) (UniProt Q6B856); assay: optical trap force clamp (detachment of kinetochore-decorated beads from microtubule tips); high density of kinetochores on anti-His beads (Dsn1:bead ratio 3,300); coverslip-anchored dynamic microtubules; ~1 pN; 3 nM Dam1c and ATP in the buffer; 5 μM AurB*-KD flowed in
# [4] = biological target: Dynamic microtubules, coverslip-anchored (grown from GMPCPP-stabilized seeds with unpolymerized tubulin) (bovine) (UniProt Q6B856); assay: optical trap force clamp (detachment of kinetochore-decorated beads from microtubule tips); high density of kinetochores on anti-His beads (Dsn1:bead ratio 3,300); coverslip-anchored dynamic microtubules; ~1 pN; 3 nM Dam1c and ATP in the buffer; 5 μM active AurB* flowed in
# [5] = biological target: Dynamic microtubules, coverslip-anchored (grown from GMPCPP-stabilized seeds with unpolymerized tubulin) (bovine) (UniProt Q6B856); assay: optical trap force clamp (detachment of kinetochore-decorated beads from microtubule tips); low density of kinetochores on anti-His beads (Dsn1:bead ratio 200); coverslip-anchored dynamic microtubules; 5 pN; 3 nM Dam1c and ATP in the buffer; 0.5 μM active AurB* flowed in
# [6] = biological target: Dynamic microtubules, coverslip-anchored (grown from GMPCPP-stabilized seeds with unpolymerized tubulin) (bovine) (UniProt Q6B856); assay: optical trap force clamp (detachment of kinetochore-decorated beads from microtubule tips); low density of kinetochores on anti-His beads (Dsn1:bead ratio 200); coverslip-anchored dynamic microtubules; 1.5 pN; 3 nM Dam1c and ATP in the buffer; 0.5 μM active AurB* flowed in
# [7] = biological target: Dynamic microtubules, coverslip-anchored (grown from GMPCPP-stabilized seeds with unpolymerized tubulin) (bovine) (UniProt Q6B856); assay: optical trap force clamp (detachment of kinetochore-decorated beads from microtubule tips); low density of kinetochores on anti-His beads (Dsn1:bead ratio 200); coverslip-anchored dynamic microtubules; 5 pN; 3 nM Dam1c and ATP in the buffer; 0.5 μM AurB*-KD flowed in
# [8] = reference: 5 µM AurB*-KD flowed in
# Sequence of UniProt Q6B856 (Q6B856 whole entry, looked up): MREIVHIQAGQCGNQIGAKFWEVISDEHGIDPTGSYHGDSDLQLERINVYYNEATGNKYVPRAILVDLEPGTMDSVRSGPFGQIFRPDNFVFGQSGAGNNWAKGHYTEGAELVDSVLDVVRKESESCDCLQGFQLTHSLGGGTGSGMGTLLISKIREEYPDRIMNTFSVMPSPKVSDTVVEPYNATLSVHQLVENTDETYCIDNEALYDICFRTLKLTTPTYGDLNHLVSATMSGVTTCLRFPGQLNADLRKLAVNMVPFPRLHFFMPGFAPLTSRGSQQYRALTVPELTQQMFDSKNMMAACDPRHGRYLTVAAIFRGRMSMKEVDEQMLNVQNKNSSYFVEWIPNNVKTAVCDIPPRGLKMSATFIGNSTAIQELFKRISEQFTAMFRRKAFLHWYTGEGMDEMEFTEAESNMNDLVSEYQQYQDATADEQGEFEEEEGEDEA
Substance,other: detachment rate (tubulin (microtubules); reference: 0.5 µM AurB*-KD flowed in),other: detachment rate (tubulin (microtubules); [8]),detachment rate [1] [h⁻¹],detachment rate [2] [h⁻¹],detachment rate [3] [h⁻¹],detachment rate [4] [h⁻¹],detachment rate [5] [h⁻¹],detachment rate [6] [h⁻¹],detachment rate [7] [h⁻¹]
Ndc80 (from UniProt P40460) 0.5 µM AurB* flowed in,weaker; reference 10.4 ± 3.3,weaker; reference 2.3 ± 0.9,–,–,–,–,–,–,–
Ndc80 (from UniProt P40460) 5 µM AurB* flowed in,–,weaker; reference 2.3 ± 0.9,–,–,–,–,–,–,–
Mps1-1 kinetochores (native kinetochores purified from budding yeast strain SBY8726) (from UniProt P40568 1-576; P40460 1-691; P53148 1-917) (complex),–,–,4.6,10.4,2.3,7.2,7,28.9,7

# Source: publication PMC9021268
